According to article PMC3820160:

Target: HA/Flag-tagged Met66 prodomain (human)
Assay: co-IP

Chain of HA/Flag-tagged Met66 prodomain (human) (P23560 19-247): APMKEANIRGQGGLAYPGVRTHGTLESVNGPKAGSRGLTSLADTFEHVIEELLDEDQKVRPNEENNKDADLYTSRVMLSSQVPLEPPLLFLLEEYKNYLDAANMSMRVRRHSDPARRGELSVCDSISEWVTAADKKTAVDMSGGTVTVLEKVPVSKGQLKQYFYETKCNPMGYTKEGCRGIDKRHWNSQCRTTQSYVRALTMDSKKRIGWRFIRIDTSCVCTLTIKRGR

Myc-tagged SorCS2 (from UniProt Q96PQ0 51-1159) (receptor)
percent more co-immunoprecipitated than with the Val66 prodomain: 23%
